The supplement of paper PMC5998384

What was measured:
[1] = test system: HeLa Kyoto; test: solubility in G1/S (NP-40 vs SDS abundance) (log2 ratio); higher = more soluble; settings: cell cycle stage: G1/S
[2] = test system: HeLa Kyoto; test: solubility change mitosis vs G1/S (difference of NP-40 vs SDS log2 ratios) (log2 ratio difference); higher = more soluble in mitosis
[3] = test system: HeLa Kyoto; test: melting temperature (median over replicates), in situ; higher = more thermally stable
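Throughout, for melting temperature (median over replicates), in situ: HeLa Kyoto cells synchronized by double thymidine or nocodazole block, proteins quantified by TMT10plex mass spectrometry, three independent biological replicates.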
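Throughout, for solubility change mitosis vs G1/S (difference of NP-40 vs SDS log2 ratios): synchronized HeLa Kyoto cells (double thymidine block for G1/S, nocodazole release for mitosis), protein amounts in NP-40 versus SDS lysates quantified by mass spectrometry, three biological replicates.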
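Throughout, for solubility in G1/S (NP-40 vs SDS abundance): HeLa Kyoto cells arrested at G1/S by double thymidine block, proteins quantified by TMT10plex mass spectrometry in mild NP-40 versus SDS extracts, three biological replicates.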

Row | Substance | solubility in G1/S (log2) [1] | solubility change mitosis (log2) [2] | melting temperature ([3]; cell cycle stage: G1/S) [°C] | melting temperature ([3]; cell cycle stage: mitosis) [°C]
1 | MAAAATMAAAARELVLRAGTSDMEEEEGPLAGGPGLQEPLQLGELDITSDEFILDEVDVHIQANLEDELVKEALKTGVDLRHYSKQVELELQQIEQKSIRDYIQESENIASLHNQITACDAVLERMEQMLGAFQSDLSSISSEIRTLQEQSGAMNIRLRNRQAVRGKLGELVDGLVVPSALVTAILEAPVTEPRFLEQLQELDAKAAAVREQEARGTAACADVRGVLDRLRVKAVTKIREFILQKIYSFRKPMTNYQIPQTALLKYRFFYQFLLGNERATAKEIRDEYVETLSKIYLSYYRSYLGRLMKVQYEEVAEKDDLMGVEDTAKKGFFSKPSLRSRNTIFTLGTRGSVISPTELEAPILVPHTAQRGEQRYPFEALFRSQHYALLDNSCREYLFICEFFVVSGPAAHDLFHAVMGRTLSMTLKHLDSYLADCYDAIAVFLCIHIVLRFRNIAAKRDVPALDRYWEQVLALLWPRFELILEMNVQSVRSTDPQRLGGLDTRPHYITRRYAEFSSALVSINQTIPNERTMQLLGQLQVEVENFVLRVAAEFSSRKEQLVFLINNYDMMLGVLMERAADDSKEVESFQQLLNARTQEFIEELLSPPFGGLVAFVKEAEALIERGQAERLRGEEARVTQLIRGFGSSWKSSVESLSQDVMRSFTNFRNGTSIIQGALTQLIQLYHRFHRVLSQPQLRALPARAELINIHHLMVELKKHKPNF [VPS52] | -0.194 | -0.138 | 51.5 | 50.4
2 | MGKKHKKHKSDKHLYEEYVEKPLKLVLKVGGNEVTELSTGSSGHDSSLFEDKNDHDKHKDRKRKKRKKGEKQIPGEEKGRKRRRVKEDKKKRDRDRVENEAEKDLQCHAPVRLDLPPEKPLTSSLAKQEEVEQTPLQEALNQLMRQLQRKDPSAFFSFPVTDFIAPGYSMIIKHPMDFSTMKEKIKNNDYQSIEELKDNFKLMCTNAMIYNKPETIYYKAAKKLLHSGMKILSQERIQSLKQSIDFMADLQKTRKQKDGTDTSQSGEDGGCWQREREDSGDAEAHAFKSPSKENKKKDKDMLEDKFKSNNLEREQEQLDRIVKESGGKLTRRLVNSQCEFERRKPDGTTTLGLLHPVDPIVGEPGYCPVRLGMTTGRLQSGVNTLQGFKEDKRNKVTPVLYLNYGPYSSYAPHYDSTFANISKDDSDLIYSTYGEDSDLPSDFSIHEFLATCQDYPYVMADSLLDVLTKGGHSRTLQEMEMSLPEDEGHTRTLDTAKEMEITEVEPPGRLDSSTQDRLIALKAVTNFGVPVEVFDSEEAEIFQKKLDETTRLLRELQEAQNERLSTRPPPNMICLLGPSYREMHLAEQVTNNLKELAQQVTPGDIVSTYGVRKAMGISIPSPVMENNFVDLTEDTEEPKKTDVAECGPGGS [BRD7] | -0.49 | 0.315 | 46.7 | 49.1
3 | MAAPWASLRLVAPMWNGRIRGIHRLGAAVAPEGNQKKKRTILQFLTNYFYDVEALRDYLLQREMYKVHEKNRSYTWLEKQHGPYGAGAFFILKQGGAVKFRDKEWIRPDKYGHFSQEFWNFCEVPVEAVDAGDCDINYEGLDNLLRLKELQSLSLQRCCHVDDWCLSRLYPLADSLQELSLAGCPRISERGLACLHHLQNLRRLDISDLPAVSNPGLTQILVEEMLPNCEVVGVDWAEGLKSGPEEQPRDTASPVPA [ATP5SL] | 0.174 | -0.0178 | 52.9 | 52
4 | MEVHGKPKASPSCSSPTRDSSGVPVSKELLTAGSDGRGGIWDRLLINSQPKSRKTSTLQTVRIERSPLLDQVQTFLPQMARANEKLRKEMAAAPPGRFNIENIDGPHSKVIQMDVALFEMNQSDSKEVDSSEESSQDSSENSSESEDEDDSIPSEVTIDNIKLPNSEGGKGKIEVLDSPASKKKK [C12ORF45] | -0.302 | 0.0873 | 52.9 | 53.7
5 | MEAAVGVPDGGDQGGAGPREDATPMDAYLRKLGLYRKLVAKDGSCLFRAVAEQVLHSQSRHVEVRMACIHYLRENREKFEAFIEGSFEEYLKRLENPQEWVGQVEISALSLMYRKDFIIYREPNVSPSQVTENNFPEKVLLCFSNGNHYDIVYPIKYKESSAMCQSLLYELLYEKVFKTDVSKIVMELDTLEVADEDNSEISDSEDDSCKSKTAAAAADVNGFKPLSGNEQLKNNGNSTSLPLSRKVLKSLNPAVYRNVEYEIWLKSKQAQQKRDYSIAAGLQYEVGDKCQVRLDHNGKFLNADVQGIHSENGPVLVEELGKKHTSKNLKAPPPESWNTVSGKKMKKPSTSGQNFHSDVDYRGPKNPSKPIKAPSALPPRLQHPSGVRQHAFSSHSSGSQSQKFSSEHKNLSRTPSQIIRKPDRERVEDFDHTSRESNYFGLSPEERREKQAIEESRLLYEIQNRDEQAFPALSSSSVNQSASQSSNPCVQRKSSHVGDRKGSRRRMDTEERKDKDSIHGHSQLDKRPEPSTLENITDDKYATVSSPSKSKKLECPSPAEQKPAEHVSLSNPAPLLVSPEVHLTPAVPSLPATVPAWPSEPTTFGPTGVPAPIPVLSVTQTLTTGPDSAVSQAHLTPSPVPVSIQAVNQPLMPLPQTLSLYQDPLYPGFPCNEKGDRAIVPPYSLCQTGEDLPKDKNILRFFFNLGVKAYSCPMWAPHSYLYPLHQAYLAACRMYPKVPVPVYPHNPWFQEAPAAQNESDCTCTDAHFPMQTEASVNGQMPQPEIGPPTFSSPLVIPPSQVSESHGQLSYQADLESETPGQLLHADYEESLSGKNMFPQPSFGPNPFLGPVPIAPPFFPHVWYGYPFQGFIENPVMRQNIVLPSDEKGELDLSLENLDLSKDCGSVSTVDEFPEARGEHVHSLPEASVSSKPDEGRTEQSSQTRKADTALASIPPVAEGKAHPPTQILNRERETVPVELEPKRTIQSLKEKTEKVKDPKTAADVVSPGANSVDSRVQRPKEESSEDENEVSNILRSGRSKQFYNQTYGSRKYKSDWGYSGRGGYQHVRSEESWKGQPSRSRDEGYQYHRNVRGRPFRGDRRRSGMGDGHRGQHT [OTUD4] | -0.0234 | 0.0663 | – | 51.1
6 | MGAPRSLLLALAAGLAVARPPNIVLIFADDLGYGDLGCYGHPSSTTPNLDQLAAGGLRFTDFYVPVSLCTPSRAALLTGRLPVRMGMYPGVLVPSSRGGLPLEEVTVAEVLAARGYLTGMAGKWHLGVGPEGAFLPPHQGFHRFLGIPYSHDQGPCQNLTCFPPATPCDGGCDQGLVPIPLLANLSVEAQPPWLPGLEARYMAFAHDLMADAQRQDRPFFLYYASHHTHYPQFSGQSFAERSGRGPFGDSLMELDAAVGTLMTAIGDLGLLEETLVIFTADNGPETMRMSRGGCSGLLRCGKGTTYEGGVREPALAFWPGHIAPGVTHELASSLDLLPTLAALAGAPLPNVTLDGFDLSPLLLGTGKSPRQSLFFYPSYPDEVRGVFAVRTGKYKAHFFTQGSAHSDTTADPACHASSSLTAHEPPLLYDLSKDPGENYNLLGGVAGATPEVLQALKQLQLLKAQLDAAVTFGPSQVARGEDPALQICCHPGCTPRPACCHCPDPHA [ARSA] | 0.664 | -0.0336 | 55.6 | 55.6
7 | MASRGKTETSKLKQNLEEQLDRLMQQLQDLEECREELDTDEYEETKKETLEQLSEFNDSLKKIMSGNMTLVDELSGMQLAIQAAISQAFKTPEVIRLFAKKQPGQLRTRLAEMDRDLMVGKLERDLYTQQKVEILTALRKLGEKLTADDEAFLSANAGAILSQFEKVSTDLGSGDKILALASFEVEKTKK [LZIC] | 0.367 | 0.544 | 54.1 | 53.2
8 | MADEATRRVVSEIPVLKTNAGPRDRELWVQRLKEEYQSLIRYVENNKNADNDWFRLESNKEGTRWFGKCWYIHDLLKYEFDIEFDIPITYPTTAPEIAVPELDGKTAKMYRGGKICLTDHFKPLWARNVPKFGLAHLMALGLGPWLAVEIPDLIQKGVIQHKEKCNQ [UFC1] | 0.134 | 0.23 | 53.3 | 52.9
9 | MGEAGAGAGASGGPEASPEAEVVKLLPFLAPGARADLQAAAVRHVLALTGCGPGRALLAGQAALLQALMELAPASAPARDAARALVNLAADPGLHETLLAADPGLPARLMGRALDPQWPWAEEAAAALANLSREPAPCAALMAALAAAEPADSGLERLVRALCTPGYNARAPLHYLAPLLSNLSQRPAARAFLLDPDRCVVQRLLPLTQYPDSSVRRGGVVGTLRNCCFEHRHHEWLLGPEVDILPFLLLPLAGPEDFSEEEMERLPVDLQYLPPDKQREPDADIRKMLVEAIMLLTATAPGRQQVRDQGAYLILRELHSWEPEPDVRTACEKLIQVLIGDEPERGMENLLEVQVPEDVEQQLQQLDCREQEQLERELAPEPWVERATPT [HGH1] | 0.131 | 0.156 | 48.7 | 50.5
10 | MEAVATATAAKEPDKGCIEPGPGHWGELSRTPVPSKPQDKVEAAEATPVALDSDTSGAENAAVSAMLHAVAASRLPVCSQQQGEPDLTEHEKVAILAQLYHEKPLVFLERFRTGLREEHLACFGHVRGDHRADFYCAEVARQGTARPRTLRTRLRNRRYAALRELIQGGEYFSDEQMRFRAPLLYEQYIGQYLTQEELSARTPTHQPPKPGSPGRPACPLSNLLLQSYEERELQQRLLQQQEEEEACLEEEEEEEDSDEEDQRSGKDSEAWVPDSEERLILREEFTSRMHQRFLDGKDGDFDYSTVDDNPDFDNLDIVARDEEERYFDEEEPEDAPSPELDGD [CCDC97] | 0.105 | 0.36 | 49.6 | 50.8
11 | MLPGLRRLLQAPASACLLLMLLALPLAAPSCPMLCTCYSSPPTVSCQANNFSSVPLSLPPSTQRLFLQNNLIRTLRPGTFGSNLLTLWLFSNNLSTIYPGTFRHLQALEELDLGDNRHLRSLEPDTFQGLERLQSLHLYRCQLSSLPGNIFRGLVSLQYLYLQENSLLHLQDDLFADLANLSHLFLHGNRLRLLTEHVFRGLGSLDRLLLHGNRLQGVHRAAFRGLSRLTILYLFNNSLASLPGEALADLPSLEFLRLNANPWACDCRARPLWAWFQRARVSSSDVTCATPPERQGRDLRALREADFQACPPAAPTRPGSRARGNSSSNHLYGVAEAGAPPADPSTLYRDLPAEDSRGRQGGDAPTEDDYWGGYGGEDQRGEQMCPGAACQAPPDSRGPALSAGLPSPLLCLLLLVPHHL [RTN4RL2] | 0.0566 | -0.00838 | 54 | 53.7
12 | MAAPSEVAAIAPGEGDGGGGGFGSWLDGRLEALGVDRAVYGAYILGILQEEEEEEKLDALQGILSAFLEEDSLLNICKEIVERWSETQNVVTKVKKEDEVQAIATLIEKQAQIVVKPRMVSEEEKQRKAALLAQYADVTDEEDEADEKDDSGATTMNIGSDKLLFRNTNVEDVLNARKLERDSLRDESQRKKEQDKLQRERDKLAKQERKEKEKKRTQRGERKR [CCDC43] | 0.483 | 0.216 | 53.8 | 53.7
13 | QSER1 | -0.136 | -0.127 | 46.5 | 48.5
14 | MDPGKDKEGVPQPSGPPARKKFVIPLDEDEVPPGVAKPLFRSTQSLPTVDTSAQAAPQTYAEYAISQPLEGAGATCPTGSEPLAGETPNQALKPGAKSNSIIVSPRQRGNPVLKFVRNVPWEFGDVIPDYVLGQSTCALFLSLRYHNLHPDYIHGRLQSLGKNFALRVLLVQVDVKDPQQALKELAKMCILADCTLILAWSPEEAGRYLETYKAYEQKPADLLMEKLEQDFVSRVTECLTTVKSVNKTDSQTLLTTFGSLEQLIAASREDLALCPGLGPQKARRLFDVLHEPFLKVP [ERCC1] | 0.296 | 0.0087 | – | 51
15 | MADQRQRSLSTSGESLYHVLGLDKNATSDDIKKSYRKLALKYHPDKNPDNPEAADKFKEINNAHAILTDATKRNIYDKYGSLGLYVAEQFGEENVNTYFVLSSWWAKALFVFCGLLTCCYCCCCLCCCFNCCCGKCKPKAPEGEETEFYVSPEDLEAQLQSDEREATDTPIVIQPASATETTQLTADSHPSYHTDGFN [DNAJC5] | 0.0289 | -0.273 | 56 | 53.5
